Among the data in US20040096894A1 (published 2004) are Kd values, retold here.

Sequences and labels used below:
B2: P-selectin lectin and EGF-like (LE) domains, monomeric (receptor, human, UniProt P16109 42-198, looked up)
chain: WTYHYSTKAYSWNISRKYCQNRYTDLVAIQNKNEIDYLNKVLPYYSSYYWIGIRKNNKTWTWVGTKKALTNEAENWADNEPNNKRNNEDCVEIYIKSPSAPGKWNDEHCLKKKHALCYTASCQDMSCSKQGECLETIGNYTCSCYPGFYGPECEYVR
modifications: three N-linked glycans when expressed in CHO cells; glycosylated form used for BIAcore, N-glycanase-deglycosylated form used for crystals
notes: domain: lectin and EGF-like (LE) domains; also called P-LE; P-selectin lectin/EGF domains

Experiment [1] concerns the target B2. In words: BIAcore SPR, equilibrium; solution-phase P-LE over immobilized biotinylated SGP-3, 25 °C. The procedure: (§1) Second row, left-to-right: SGP-1 (FIGS. 1C-4), GP-1 (FIGS. 1C-5) and SP-1 (FIGS. 1C-6). […] KDs and standard deviations (shown) were determined by line-fitting of specific binding curves using BIAevaluation software (BIAcore) and are the products of three-to-ten separate experiments.
(§2) Surface plasmon resonance was performed on BIAcore 2000 and 3000 instruments at 25° C. using streptavidin-coated sensor chips (BIAcore) and HBS-P buffer (BIAcore; 10 mM HEPES (pH 7.4), 150 mM NaCl, and 0.005% polysorbate 20 (v/v)) adjusted to 1 mM each CaCl₂ and MgCl₂. The 19ek peptides and sPSGL, a fucosyltransferase-VII modified version of the entire dimeric extracellular domain of PSGL-1 (Croce et al., 1998), were biotinylated at Lys residues with Sulfo-NHS-LC-Biotin (Pierce). Following biotinylation, sPSGL was reacted with immobilized P-selectin in order to isolate functional material (Sako et al., 1995). […] Biotinylated reagents were coated onto sensor chips using HBS-P buffer.
On the technique in general: Surface plasmon resonance follows binding to a sensor surface in real time, without labels.

In experiment [2] the target is T1, PSGL-1 19ek peptide SGP-2 (disulfated form of SGP-3) (human, UniProt Q14242 42-60, two tyrosine sulfates (positions not resolved; every permutation present); SLe^X-containing core2 O-glycan at Thr-16; biotinylated at Lys residues).
T1 construct: domain: N-terminal 19 amino acids of PSGL-1; Same polypeptide as SGP-3, less modified; also called disulfated species
T1 sequence (Q14242 42-60, looked up): QATEYEYLDYDFLPETEPP
In words: BIAcore SPR, equilibrium; solution-phase P-LE over immobilized biotinylated SGP-2. The procedure: as §1, §2

Experiment [3] addresses T2, PSGL-1 19ek peptide glycopeptide-1 (GP-1) (human, UniProt Q14242 42-60, no tyrosine sulfates; SLe^X-containing core2 O-glycan at Thr-16; biotinylated at Lys residues).
T2 construct: domain: N-terminal 19 amino acids of PSGL-1; Form of SGP-3 containing no tyrosine sulfates
T2 sequence (Q14242 42-60, looked up): QATEYEYLDYDFLPETEPP
Put plainly: BIAcore SPR, equilibrium; solution-phase P-LE over immobilized biotinylated GP-1. The procedure: as §1, §2

The target in experiment [4] is T3, PSGL-1 19ek peptide sulfopeptide-1 (SP-1) (human, UniProt Q14242 42-60, tyrosine sulfated; no carbohydrate; biotinylated at Lys residues).
T3 construct: domain: N-terminal 19 amino acids of PSGL-1; Form of SGP-3 containing no carbohydrate
T3 sequence (Q14242 42-60, looked up): QATEYEYLDYDFLPETEPP
In words: BIAcore SPR, equilibrium; solution-phase P-LE over immobilized biotinylated SP-1. The procedure:
as §1, §2

The target of experiment [5] is T4, PSGL-1 19ek peptide SGP-1 (monosulfated form of SGP-3) (human, UniProt Q14242 42-60, one tyrosine sulfate (position not resolved; every permutation present); SLe^X-containing core2 O-glycan at Thr-16; biotinylated at Lys residues).
T4 construct: domain: N-terminal 19 amino acids of PSGL-1; Same polypeptide as SGP-3, less modified; also called monosulfated species
T4 sequence (Q14242 42-60, looked up): QATEYEYLDYDFLPETEPP
Put plainly: BIAcore SPR, equilibrium; solution-phase P-LE over immobilized biotinylated SGP-1. The procedure:
as §1, §2

Square brackets hold non-standard residues; d marks the D form. Ends that are not written are not given here. sY = N[C@@H](Cc1ccc(OS(=O)(=O)O)cc1)C(=O)O; pGlu = O=C1CC[C@@H](C(=O)O)N1

B1: PSGL-1 19ek peptide sulfoglycopeptide-3 (SGP-3) (peptide)
chain: [pGlu]ATE[sY]E[sY]LD[sY]DFLPET(SLeX core2 O‑glycan)EPP
modifications: also: biotinylated at Lys residues when immobilized, site not placed
Usually Kd stands for the free concentration of one partner at which half of the binding sites on the other are occupied at equilibrium, for simple one-to-one binding. The low end stands for a tighter complex, the high end for a looser complex. In experiment [1], B1 registered a Kd of 0.778 µM.
In the case of B2, the Kd in experiment [2] is 2.88 µM; in experiment [3], around 31.1 µM; in experiment [4], around 113 µM; in experiment [5], 12.3 µM.
